From article PMC9770967, “Native holdup (nHU) to measure binding affinities from cell extracts” (Science Advances, 2022)

Experiments:
[1] = tested on: SNX27_PDZ; assay: nHU-MS, SNX27_PDZ bait, total Jurkat extracts, series 1; assay type: binding, human; conditions: Jurkat, series 1; for BI_HU / FC_HU (log2 fold change) / Ratio_HU: n = 6; for pKapp_significant_binders_HU: apparent, Eq. 2, significant binders (1 σ, P < 0.05)
Description: The empty His6-AviTag-MBP-TEV vector was used to produce biotinylated MBP for control experiments. Proteins were coexpressed with BirA biotin ligase (PET21a-BirA, Addgene, no. 20857) in Escherichia coli BL21(DE3) cells. At isopropyl-β-D-thiogalactopyranoside (IPTG) induction (1 mM IPTG at 18°C overnight), 50 μM biotin was added to the media. Harvested cells were lysed in a buffer containing 50 mM tris (pH 7.5), 150 to 300 mM NaCl, 50 μM biotin, 2 mM β-mercaptoethanol, cOmplete EDTA-free protease inhibitor cocktail (Roche, Basel, Switzerland), 1% Triton X-100, and trace amount of deoxyribonuclease, ribonuclease, and lysozyme. Lysates were frozen at −20°C before further purification steps. Lysates were sonicated and centrifuged for clarification. Expressed proteins were captured on in-house prepacked Ni-IDA (Protino Ni-IDA Resin, Macherey-Nagel, Duren, Germany) columns and were washed with at least 10 column volumes of cold wash buffer [50 mM tris (pH 7.5), 150 mM NaCl, and 2 mM β-mercaptoethanol] before elution with 250 mM imidazole. The Ni elution was collected directly on a preequilibrated amylose column (amylose high flow resin, New England Biolabs, Ipswich, MA). Amylose column was washed with 5 column volumes of cold wash buffer before fractionated elution in a buffer containing 25 mM Hepes (pH 7.5), 150 mM NaCl, 1 mM TCEP, 10% glycerol, 5 mM maltose, and cOmplete EDTA-free protease inhibitor cocktail. The concentration of proteins was determined by their ultraviolet absorption at 280 nm before aliquots were snap-frozen in liquid nitrogen and stored at −80°C.
For saturating streptavidin resin with biotinylated peptides or biotin, 50 μl of streptavidin resin was mixed with biotin or peptide at 40 to 60 μM concentration in 6 to 6.5 resin volume for 60 min. To saturate streptavidin resin with biotinylated proteins, 50 μl of streptavidin resin (Streptavidin Sepharose High Performance, Cytiva) was mixed with biotinylated MBP or MBP-PDZ at 40 to 50 μM concentration in 20× resin volume for 60 min. After saturation, resins were washed a single time [10 resin volume, holdup buffer: 50 mM tris (pH 7.5), 300 mM NaCl, and 1 mM TCEP, 0.22-μm filtered] and were depleted with biotin (10 resin volume, 10 min, holdup buffer supplemented with 100 μM biotin). Last, resins were washed two times (10 resin volume, holdup buffer).
For single-point nHU experiments carried out at ~10 μM bait concentration, 50 μl of saturated streptavidin resin was mixed with 200 μl of cell lysate (2 mg/ml). Titration experiments were carried out by mixing control and bait-saturated resin and keeping the total resin volume constant; e.g., ~5 μM bait concentration can be achieved by mixing 25 μl of bait-saturated streptavidin resin with 25 μl of control resin and 200 μl of cell lysate (2 mg/ml). Control and bait-saturated resins were prepared in larger amounts, and a serial dilution was prepared with these presaturated resins to achieve different resin ratios.
Unless specified elswhere, the nHU mixture was incubated at 4°C for 2 hours. After the incubation ended, the resin was separated from the supernatant by a brief centrifugation (15 s, 2000 g). Then, half of the supernatant was removed by pipetting without any delay to avoid any resin contamination; e.g., 100 μl of supernatant is collected if 200 μl of cell lysate was used as analyte. Alternatively, the supernatant can be centrifuged an additional time to clarify it further, removing any possible resin contamination. In principle, the separation of the supernatant should be as fast as possible since any delay can perturb the equilibrium. […] Alternatively, the resin can be separated from the supernatant using filter plates (e.g., various products of Millipore, Burlington, MA) or spin columns (e.g., Pierce spin cups—cellulose acetate filter from Thermo Fisher Scientific, Waltham, MA) to achieve faster separation. […]

[2] = tested on: SNX27_PDZ; assay: AP-MS control pull-down on leftover resin, SNX27_PDZ bait, total Jurkat extracts; assay type: binding, human; conditions: Jurkat, series 1; leftover resin; n = 6
Description: Leftover beads from nHU-MS experiments were washed three times immediately after the separation of the supernatant [10 resin volume in buffer containing 50 mM tris (pH 8.5), 150 mM NaCl, 1% Triton X-100, 10× cOmplete EDTA-free protease inhibitor cocktail, 2 mM EDTA, and 1 mM TCEP]. Then, the beads were washed two times [10 resin volume buffer containing 50 mM tris (pH 8.5), 150 mM NaCl, and 1 mM TCEP]. Last, captured protein was eluted from the resin in two steps, and the eluted fractions were pooled. For each elution, the beads were incubated for 30 min with three resin volume buffer containing 20 mM tris (pH 8.5), 100 mM NaCl, 500 μM TCEP, and 8 M urea. Between each step, the beads were separated by mild centrifugation, and the supernatant was removed by gentle pipetting.
The nHU samples were precipitated with trichloroacetic acid (TCA) 20% overnight at 4°C and centrifuged at 14,000 rpm for 10 min at 4°C. The protein pellets were washed twice with 1 ml of cold acetone and air-dried. The protein extracts were solubilized in 8 M urea, reduced with 5 mM TCEP for 30 min, and alkylated with 10 mM iodoacetamide for 30 min in the dark. Double digestion was performed at 37°C with 500 ng of endoproteinase Lys-C (Wako, Richmond, USA) for 4 hours, followed by fourfold dilution and an overnight digestion with 500 ng of trypsin (Promega, Charbonnieres les Bains, France). Peptide mixtures were then desalted on a C18 spin-column and dried on a speed vacuum.
Samples were analyzed using an Ultimate 3000 nano-RSLC coupled in line via a nano-electrospray ionization source, with an LTQ-Orbitrap ELITE mass spectrometer (Thermo Fisher Scientific, San Jose, CA) or with the Orbitrap Exploris 480 mass spectrometer (Thermo Fisher Scientific, Bremen, Germany) equipped with a high field asymmetric ion mobility spectrometry (FAIMS) module. Peptide mixtures were injected in 0.1% trifluoroacetic acid on a C18 Acclaim PepMap100 trap column [75 μm inner diameter (ID) × 2 cm, 3 μm, 100 Å, Thermo Fisher Scientific] for 3 min at 5 μl/min with 2% acetonitrile (ACN) and 0.1% formic acid (FA) in H2O and then separated on a C18 Acclaim PepMap100 nano-column (75 μm ID × 50 cm, 2.6 μm, 150 Å, Thermo Fisher Scientific) at 300 nl/min and 40°C with a 90-min linear gradient from 5 to 30% buffer B (A: 0.1% FA in H2O/B: 80% ACN, 0.1% FA in H2O) and regeneration at 5% B. Spray voltage was set to 2.1 kV and heated capillary temperature was set to 280°C.
For the Orbitrap Elite, the mass spectrometer was operated in positive ionization mode in data-dependent mode with survey scans from mass/charge ratio (m/z) 350 to 1500 acquired in the Orbitrap at a resolution of 120,000 at m/z 400. The 20 most intense peaks from survey scans were selected for further fragmentation in the linear ion trap with an isolation window of 2.0 Da and were fragmented by collision-induced dissociation (CID) with a normalized collision energy of 35% (TOP 20 CID method). Unassigned and single-charged states were excluded from fragmentation. The ion target value for the survey scans (in the Orbitrap) and the MS2 mode (in the linear ion trap) were set to 1E6 and 5E3, respectively, and the maximum injection time was set to 100 ms for both scan modes. Dynamic exclusion was set to 20 s after one repeat count with mass width at ±10 parts per million (ppm).
Proteins were identified by database search using SequestHT (Thermo Fisher Scientific) with Proteome Discoverer 2.4 software (PD2.4, Thermo Fisher Scientific) on the human FASTA database downloaded from UniProt (reviewed, release 2021_06_03, 20380 entries, https://uniprot.org/, complemented with sequences of likely contaminants, such as MBP, streptavidin, or trypsin). Precursor and fragment mass tolerances were set at 7 ppm and 0.6 Da, respectively, and up to two missed cleavages were allowed. […]

B1: PTPRCAP: Protein tyrosine phosphatase receptor type C-associated protein (protein, UniProt Q14761 1-206, looked up)
Protein tyrosine phosphatase …: MALPCTLGLGMLLALPGALGSGGSAEDSVGSSSVTVVLLLLLLLLLATGLALAWRRLSRDSGGYYHPARLGAALWGRTRRLLWASPPGRWLQARAELGSTDNDLERQEDEQDTDYDHVADGGLQADPGEGEQQCGEASSPEQVPVRAEEARDSDTEGDLVLGSPGPASAGGSAEALLSDLHAFAGSAAWDDSARAAGGQGLHVTAL
With B1 the BI_HU [1] was 0.3458, the “FC_HU (log2 fold change)” value [1] was -0.6123 and the Ratio_HU [1] was 0.6542. For the same molecule, the pKapp_significant_binders_HU [1] was 4.725, the “FC_AP (log2 fold change)” value [2] was 0.5179 and the Ratio_AP [2] was 1.432.

B2: ARHGEF6: Rho guanine nucleotide exchange factor 6 (protein, UniProt Q15052 1-776, looked up)
Rho guanine nucleotide …: MNPEEQIVTWLISLGVLESPKKTICDPEEFLKSSLKNGVVLCKLINRLMPGSVEKFCLDPQTEADCINNINDFLKGCATLQVEIFDPDDLYSGVNFSKVLSTLLAVNKATEDQLSERPCGRSSSLSAANTSQTNPQGAVSSTVSGLQRQSKTVEMTENGSHQLIVKARFNFKQTNEDELSVCKGDIIYVTRVEEGGWWEGTLNGRTGWFPSNYVREIKSSERPLSPKAVKGFETAPLTKNYYTVVLQNILDTEKEYAKELQSLLVTYLRPLQSNNNLSTVEVTSLLGNFEEVCTFQQTLCQALEECSKFPENQHKVGGCLLSLMPHFKSMYLAYCANHPSAVNVLTQHSDELEQFMENQGASSPGILILTTNLSKPFMRLEKYVTLLQELERHMEDTHPDHQDILKAIVAFKTLMGQCQDLRKRKQLELQILSEPIQAWEGEDIKNLGNVIFMSQVMVQYGACEEKEERYLMLFSNVLIMLSASPRMSGFIYQGKIPIAGTVVTRLDEIEGNDCTFEITGNTVERIVVHCNNNQDFQEWLEQLNRLIRGPASCSSLSKTSSSSCSAHSSFSSTGQPRGPLEPPQIIKPWSLSCLRPAPPLRPSAALGYKERMSYILKESSKSPKTMKKFLHKRKTERKPSEEEYVIRKSTAALEEDAQILKVIEAYCTSANFQQGHGSSTRKDSIPQVLLPEEEKLIIEETRSNGQTIMEEKSLVDTVYALKDEVRELKQENKRMKQCLEEELKSRRDLEKLVRRLLKQTDECIRGESSSKTSILP
In the case of B2, the BI_HU [1] is reported as 0.3284, the “FC_HU (log2 fold change)” value [1] is reported as -0.5743 and the Ratio_HU [1] is reported as 0.6716. For the same molecule, the pKapp_significant_binders_HU [1] was 4.691, the “FC_AP (log2 fold change)” value [2] was 5.099 and the Ratio_AP [2] was 34.2811.

B3: Microtubule-associated protein 4: full-length endogenous prey, gene MAP4 (protein, UniProt P27816 1-1152, looked up)
chain: MADLSLADALTEPSPDIEGEIKRDFIATLEAEAFDDVVGETVGKTDYIPLLDVDEKTGNSESKKKPCSETSQIEDTPSSKPTLLANGGHGVEGSDTTGSPTEFLEEKMAYQEYPNSQNWPEDTNFCFQPEQVVDPIQTDPFKMYHDDDLADLVFPSSATADTSIFAGQNDPLKDSYGMSPCNTAVVPQGWSVEALNSPHSESFVSPEAVAEPPQPTAVPLELAKEIEMASEERPPAQALEIMMGLKTTDMAPSKETEMALAKDMALATKTEVALAKDMESPTKLDVTLAKDMQPSMESDMALVKDMELPTEKEVALVKDVRWPTETDVSSAKNVVLPTETEVAPAKDVTLLKETERASPIKMDLAPSKDMGPPKENKKETERASPIKMDLAPSKDMGPPKENKIVPAKDLVLLSEIEVAQANDIISSTEISSAEKVALSSETEVALARDMTLPPETNVILTKDKALPLEAEVAPVKDMAQLPETEIAPAKDVAPSTVKEVGLLKDMSPLSETEMALGKDVTPPPETEVVLIKNVCLPPEMEVALTEDQVPALKTEAPLAKDGVLTLANNVTPAKDVPPLSETEATPVPIKDMEIAQTQKGISEDSHLESLQDVGQSAAPTFMISPETVTGTGKKCSLPAEEDSVLEKLGERKPCNSQPSELSSETSGIARPEEGRPVVSGTGNDITTPPNKELPPSPEKKTKPLATTQPAKTSTSKAKTQPTSLPKQPAPTTIGGLNKKPMSLASGLVPAAPPKRPAVASARPSILPSKDVKPKPIADAKAPEKRASPSKPASAPASRSGSKSTQTVAKTTTAAAVASTGPSSRSPSTLLPKKPTAIKTEGKPAEVKKMTAKSVPADLSRPKSTSTSSMKKTTTLSGTAPAAGVVPSRVKATPMPSRPSTTPFIDKKPTSAKPSSTTPRLSRLATNTSAPDLKNVRSKVGSTENIKHQPGGGRAKVEKKTEAAATTRKPESNAVTKTAGPIASAQKQPAGKVQIVSKKVSYSHIQSKCGSKDNIKHVPGGGNVQIQNKKVDISKVSSKCGSKANIKHKPGGGDVKIESQKLNFKEKAQAKVGSLDNVGHLPAGGAVKTEGGGSEAPLCPGPPAGEEPAISEAAPEAGAPTSASGLNGHPTLSGGGDQREAQTLDSQIQETSI
modifications: full-length
notes: full-length endogenous prey, gene MAP4
For B3, the BI_HU [1] was 0.2772, the “FC_HU (log2 fold change)” value [1] was -0.4683 and the Ratio_HU [1] was 0.7228. For the same molecule, the pKapp_significant_binders_HU [1] was 4.5849, the “FC_AP (log2 fold change)” value [2] was 7.799 and the Ratio_AP [2] was 222.732.
